The target in assay [1] is active human C1s purified from human serum (CompTech, Tyler, TX, catalog number A104) (human) (UniProt P09871). Nature of the assay: cell-based or functional assay.
Assay [2] shares this target. The experiment in a line: SPR, antibody captured via anti-human Fc, C1s in solution.

Chain of active human C1s purified from human serum (CompTech, Tyler, TX, catalog number A104) (human) (P09871 16-437, chain 1 of 2): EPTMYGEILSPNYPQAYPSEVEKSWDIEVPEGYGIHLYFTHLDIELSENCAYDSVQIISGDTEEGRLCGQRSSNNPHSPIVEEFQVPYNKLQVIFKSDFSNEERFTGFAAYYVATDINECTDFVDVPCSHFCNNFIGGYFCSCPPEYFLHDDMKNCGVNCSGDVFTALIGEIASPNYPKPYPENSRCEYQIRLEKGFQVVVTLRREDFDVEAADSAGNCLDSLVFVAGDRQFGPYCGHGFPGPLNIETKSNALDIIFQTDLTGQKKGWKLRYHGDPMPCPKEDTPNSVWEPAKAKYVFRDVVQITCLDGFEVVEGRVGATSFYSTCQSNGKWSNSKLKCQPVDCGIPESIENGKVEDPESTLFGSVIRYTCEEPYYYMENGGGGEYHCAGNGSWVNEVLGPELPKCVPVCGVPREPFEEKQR
Chain of active human C1s purified from human serum (CompTech, Tyler, TX, catalog number A104) (human) (P09871 438-688, chain 2 of 2): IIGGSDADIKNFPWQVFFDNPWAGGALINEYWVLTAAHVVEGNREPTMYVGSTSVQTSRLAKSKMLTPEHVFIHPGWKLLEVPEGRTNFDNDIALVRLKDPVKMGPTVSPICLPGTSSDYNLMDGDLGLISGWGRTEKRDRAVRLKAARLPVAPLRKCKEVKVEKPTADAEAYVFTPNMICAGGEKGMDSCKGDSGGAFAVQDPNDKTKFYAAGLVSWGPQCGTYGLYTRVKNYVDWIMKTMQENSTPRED

B1: recombinant TNT020 (antibody, from another filing, V domains shown)
VH: QVQLVQSGAEVKKPGASVKLSCTASGFNIKDDYIHWVKQAPGQGLEWIGRIDPADGHTKYAPKFQVKVTITADTSTSTAYLELSSLRSEDTAVYYCARYGYGREVFDYWGQGTTVTVSS
VL: DIVLTQSPDSLAVSLGERATISCKASQSVDYDGDSYMNWYQQKPGQPPKILIYDASNLESGIPARFSGSGSGTDFTLTISSLEPEDFAIYYCQQSNEDPWTFGGGTKVEIKR
Consider B1, for which, in assay [1], the IC50, inhibition of C3b deposition on sensitized hRBCs in 7.5% human serum (flow cytometry), Donor A was 52.9 nM; the IC50, inhibition of C3b deposition on sensitized hRBCs in 7.5% human serum (flow cytometry), Donor B (1) came to 238 nM; the IC50, inhibition of C3b deposition on sensitized hRBCs in 7.5% human serum (flow cytometry), Donor B (2) amounted to 688 nM; the IC50, inhibition of sensitized hRBC lysis in 25% human serum, Donor 1 was found to be 20.9 nM. In assay [1], the IC50, inhibition of sensitized hRBC lysis in 25% human serum, Donor 2 worked out at 30.7 nM and the IC50, inhibition of sensitized hRBC lysis in 25% human serum, Donor 3 turned out to be 14.6 nM. Also, in assay [2], the Kd is 3.77 nM, the koff was determined as 0.00134 s⁻¹ and the kon stood at 357000 M⁻¹ s⁻¹.

One may read the Kd as a measure of binding affinity in units of concentration. A lower Kd goes with tighter binding. For orientation: koff means a measure of how fast the partners let go of each other. High values mean fast dissociation, low ones slow dissociation. The kon is the rate constant with which the complex forms.

The values are drawn from US20250188188A1.
